Where two headings read alike, the source gives them in different places.
Assays:
[1] = molecular target: CT^C1, untagged C-terminal tail of FGFR2 (the last 58 residues) (UniProt P21802); experiment: MST
[2] = molecular target: FGFR2 juxtamembrane region (JM) (UniProt P21802); experiment: MST
[3] = molecular target: KD^pY1, mono-phosphorylated FGFR2 kinase domain (UniProt P21802); experiment: MST
[4] = molecular target: JM-KD^pY1 (UniProt P21802); experiment: MST
[5] = molecular target: CT^C1, untagged C-terminal tail of FGFR2 (the last 58 residues) (UniProt P21802); experiment: SPR
[6] = molecular target: JM-KD^pY1 (UniProt P21802); experiment: SPR
[7] = molecular target: FGFR2 juxtamembrane region (JM) (UniProt P21802); experiment: MST; remark: listed apart in the source
[8] = molecular target: JM-KD^Y657/658F (UniProt P21802-3 414-764, Y657/658F)

“KD^pY1, mono-phosphorylated FGFR2 kinase domain (from UniProt P21802-3 465-764) (domain or fragment)” showed a Kd [1] of 3.75 µM, a Kd [2] of 2.51 µM and a Kd [3] of 0.112 µM.

In the case of “JM-KD^pY1 (from UniProt P21802-3 414-764) (domain or fragment)”, the Kd [1] is reported as 0.304 µM, the Kd [4] is reported as 3.46 µM and the Kd [5] is reported as 0.165 µM. The Kd [6] was 3.07 µM.

JM peptide 414-430 gave a Kd [3] of 36.8 µM.

CT peptide 801-815 was tested, and the Kd [3] was 25.9 µM.

Molecule JM peptide 407-420 has a fold weaker binding than peptide 414-430 [3] of 3 fold.

B1: CT^C1, untagged C-terminal tail of FGFR2 (the last 58 residues) (domain or fragment)
chain: TTNEEYLDLSQPLEQYSPSYPDTRSSCSSGDDSVFSPDPMPYEPCLPQYPHINGSVKT
modifications: Atto488 dye in the MST assays where CT is the labelled partner
B1 was tested, and the Kd [7] was 20.2 µM and the Kd [8] was 5.65 ± 1.9 µM.
